Biological target: Myc-tagged Slo1QEERL
Test: cell-based or functional assay

HA-tagged Slo1VEDEC
reduction in mean surface expression of Slo1 (cell-surface biotinylation, densitometry): 50%

Reference: patent US20110086795A1
